According to FireProtDB (doi:10.1016/j.jmb.2003.11.050):

Details: Bacillus caldolyticus; pH 7; 25 °C; GdnHCl; Fluorescence; sodium cacodylate 100 mM; reversible: yes; whole UniProt chain shown

B1: Cold shock protein CspB wild type, P41016 (protein)
chain: MQRGKVKWFNNEKGYGFIEVEGGSDVFVHFTAIQGEGFKTLEEGQEVSFEIVQGNRGPQAANVVKL
Question: Which denaturant m value does the source give for B1 here?
Answer: 1.53 kcal/mol/M

Question: What about the “denaturant midpoint (higher = more stable)” value of the same protein?
Answer: 2.36 M

Question: And the unfolding free energy?
Answer: 3.63 kcal/mol
